Common to all, as to assay: cell-based or functional assay
The target of test [1] is T1, ecoISO-Dzip2 (xylose isomerase derived from Escherichia coli, Dzip2 association site fused at the C-terminal side) (Escherichia coli) (UniProt B1X8I1).
T1 sequence: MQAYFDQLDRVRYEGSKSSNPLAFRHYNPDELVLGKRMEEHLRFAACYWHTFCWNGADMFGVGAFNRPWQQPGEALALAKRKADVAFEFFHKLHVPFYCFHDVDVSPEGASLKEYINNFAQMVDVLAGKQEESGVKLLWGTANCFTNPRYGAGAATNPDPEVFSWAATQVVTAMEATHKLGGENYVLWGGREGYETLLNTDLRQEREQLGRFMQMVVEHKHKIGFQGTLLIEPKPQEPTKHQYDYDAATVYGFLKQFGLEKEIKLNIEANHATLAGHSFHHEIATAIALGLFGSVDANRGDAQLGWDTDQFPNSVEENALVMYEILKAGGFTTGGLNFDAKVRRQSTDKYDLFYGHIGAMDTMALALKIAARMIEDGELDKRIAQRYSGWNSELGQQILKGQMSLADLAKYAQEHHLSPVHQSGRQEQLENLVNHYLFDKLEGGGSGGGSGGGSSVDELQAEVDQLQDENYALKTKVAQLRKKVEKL

Test [2] concerns the target ppuDp-Jun (diaphorase derived from Pseudomonas putida, Jun association site fused at the C-terminal side) (Pseudomonas putida).
The target in test [3] is phoDp-Jun (diaphorase derived from Pyrococcus horikoshii, Jun association site fused at the C-terminal side) (Pyrococcus horikoshii).
Test [4] concerns the target goxDp-Dzip2 (diaphorase derived from Gluconobacter oxydans, Dzip2 association site fused at the C-terminal side) (Gluconobacter oxydans).
Test [5] deals with T2, goxALDH-Dzip2 (aldehyde dehydrogenase derived from Gluconobacter oxydans, Dzip2 association site fused at the C-terminal side) (Gluconobacter oxydans).
T2 sequence: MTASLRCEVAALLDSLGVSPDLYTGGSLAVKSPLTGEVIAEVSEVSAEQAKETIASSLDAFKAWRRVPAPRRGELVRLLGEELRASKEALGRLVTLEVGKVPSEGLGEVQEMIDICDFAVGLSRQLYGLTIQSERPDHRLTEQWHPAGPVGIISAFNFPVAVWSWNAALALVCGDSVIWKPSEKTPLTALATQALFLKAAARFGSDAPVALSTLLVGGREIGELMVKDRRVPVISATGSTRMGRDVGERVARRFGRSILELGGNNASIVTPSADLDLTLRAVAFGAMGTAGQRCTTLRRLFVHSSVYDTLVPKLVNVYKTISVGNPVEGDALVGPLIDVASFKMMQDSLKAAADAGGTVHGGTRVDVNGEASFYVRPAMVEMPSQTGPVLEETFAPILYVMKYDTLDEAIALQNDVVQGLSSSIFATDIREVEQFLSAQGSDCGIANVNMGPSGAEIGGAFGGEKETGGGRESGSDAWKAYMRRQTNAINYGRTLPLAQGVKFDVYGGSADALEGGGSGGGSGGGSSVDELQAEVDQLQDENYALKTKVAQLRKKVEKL

B1: His-busGDH-Dzip1 (glucose dehydrogenase derived from Bacillus subtilis, His tag, Dzip1 association site fused at the C-terminal side) (enzyme)
chain: MGSSHHHHHHSQDPYPDLKGKVVAITGAASGLGKAMAIRFGKEQAKVVINYYSNKQDPNEVKEEVIKAGGEAVVVQGDVTKEEDVKNIVQTAIKEFGTLDIMINNAGLENPVPSHEMPLKDWDKVIGTNLTGAFLGSREAIKYFVENDIKGNVINMSSVHEVIPWPLFVHYAASKGGIKLMTETLALEYAPKGIRVNNIGPGAINTPINAEKFADPKQKADVESMIPMGYIGEPEEIAAVAAWLASKEASYVTGITLFADGGMTQYPSFQAGRGKLGGGSGGGSGGGSTVAQLEEKVKTLRAQNYELKSRVQRLREQVAQLA
In test [1], B1 displayed a maximum electric power (fructose fuel cell) of 101 µW/cm^2 and a shortcircuit current density (fructose fuel cell) of 1110 µA/cm^2.

B2: His-busGDH-Fos (glucose dehydrogenase derived from Bacillus subtilis, His tag, Fos association site fused at the C-terminal side) (enzyme)
chain: MGSSHHHHHHSQDPYPDLKGKVVAITGAASGLGKAMAIRFGKEQAKVVINYYSNKQDPNEVKEEVIKAGGEAVVVQGDVTKEEDVKNIVQTAIKEFGTLDIMINNAGLENPVPSHEMPLKDWDKVIGTNLTGAFLGSREAIKYFVENDIKGNVINMSSVHEVIPWPLFVHYAASKGGIKLMTETLALEYAPKGIRVNNIGPGAINTPINAEKFADPKQKADVESMIPMGYIGEPEEIAAVAAWLASKEASYVTGITLFADGGMTQYPSFQAGRGKLGGGSGGGSLTDTLQAETDQLEDKKSALQTEIANLLKEKEKLEFILAAY
With B2, in test [2], the maximum electric power (glucose fuel cell) was found to be 101 µW/cm^2 and the shortcircuit current density (glucose fuel cell) is 988 µA/cm^2.

B3: His-pfuGDH-Fos (glucose dehydrogenase derived from Pyrococcus furiosus, His tag, Fos association site fused at the C-terminal side) (enzyme)
chain: MGSSHHHHHHSQDPNILITASSRGIGFNVAKELLKKGHRVVISSSNEKNLEKALEELKEYEKVYPIKADLSKKEEIKNMVEKAWEILGKIDVLVWNAPNVKCEPCMIHELDYEDWVEGALLHIIAPGYLTTLLLNKWLKNNTRGIIIYLSSASVLEPMPPLLLADSTRAGLIQLAKGISRAYGKRGIRAYTVLLGSFDTPGARENLRRLAEKRGVDPEELWKKEVIERTPLQRTGKWEELGELIEFLLSDNAEYMLGSTILFDGAMTRSVLLKLGGGSGGGSLTDTLQAETDQLEDKKSALQTEIANLLKEKEKLEFILAAY
In test [3], B3 had a maximum electric power (glucose fuel cell) of 126 µW/cm^2 and a shortcircuit current density (glucose fuel cell) of 1320 µA/cm^2.

B4: His-sceADH-Fos (alcohol dehydrogenase derived from Saccharomyces cerevisiae, His tag, Fos association site fused at the C-terminal side) (enzyme)
chain: MGSSHHHHHHSQDPPSQVIPEKQKAIVFYETDGKLEYKDVTVPEPKPNEILVHVKYSGVCHSDLHAWHGDWPFQLKFPLIGGHEGAGVVVKLGSNVKGWKVGDFAGIKWLNGTCMSCEYCEVGNESQCPYLDGTGFTHDGTFQEYATADAVQAAHIPPNVNLAEVAPILCAGITVYKALKRANVIPGQWVTISGACGGLGSLAIQYALAMGYRVIGIDGGNAKRKLFEQLGGEIFIDFTEEKDIVGAIIKATNGGSHGVINVSVSEAAIEASTRYCRPNGTVVLVGMPAHAYCNSDVFNQVVKSISIVGSCVGNRADTREALDFFARGLIKSPIHLAGLSDVPEIFAKMEKGEIVGRYVVETSKKLGGGSGGGSLTDTLQAETDQLEDKKSALQTEIANLLKEKEKLEFILAAY
In test [2], B4 came in with a maximum electric power (alcohol fuel cell) of 80 µW/cm^2 and a shortcircuit current density (alcohol fuel cell) of 821 µA/cm^2.

B5: His-ppuMDH-Dzip1 (malic acid dehydrogenase derived from Pseudomonas putida, His tag, Dzip1 association site fused at the C-terminal side) (enzyme)
chain: MGSSHHHHHHSQDPSDLKTAALEYHAQPRPGKLSVELSKPTATARDLALAYSPGVAEPVREIGRDPELAYKYTGKGNLVAVISDGTAILGLGDLGPLASKPVMEGKGVLFKRFAGIDVFDIEVESESPQAFIDTVRRISITFGGINLEDIKAPECFEIERTLIEQCDIPVFHDDQHGTAIVTAAGMINALEIAGKKLEEAKIVCLGAGAAAISCMKLLVSMGAKVENIFMIDRSGVIHAGRDDLNQYKAQFAHATDKRTLADALDGADVFVGLSGPNLLSPEGLKSMAANPIVFACSNPDPEISPELAHATRNDVIMATGRSDYPNQVNNVLGFPFIFRGALDVRAKRINEEMKIAAAIALKDLAKLPVPKEVCEAYGVEGLEFGREYIIPKPLDARLITVVSDAVAKAAIESGVATLPYPKHYPLTSVDEVFNGKLGGGSGGGSGGGSTVAQLEEKVKTLRAQNYELKSRVQRLREQVAQLA
In test [4], B5 came in with a maximum electric power (malic acid fuel cell) of 99 µW/cm^2 and a shortcircuit current density (malic acid fuel cell) of 1030 µA/cm^2.

B6: His-lplLDH-Dzip1 (lactic acid dehydrogenase derived from Lactobacillus plantarum, His tag, Dzip1 association site fused at the C-terminal side) (enzyme)
chain: MGSSHHHHHHSQDPSSMPNHQKVVLVGDGAVGSSYAFAMAQQGIAEEFVIVDVVKDRTKGDALDLEDAQAFTAPKKIYSGEYSDCKDADLVVITAGAPQKPGESRLDLVNKNLNILSSIVKPVVDSGFDGIFLVAANPVDILTYATWKFSGFPKDRVIGSGTSLDSSRLRVALGKQFNVDPRSVDAYIMGEHGDSEFAAYSTATIGTRPVRDVAKEQGVSDEDLAKLEDGVRNKAYDIINLKGATFYGIGTALMRISKAILRDENAVLPVGAYMDGQYGLNDIYIGTPAVIGGTGLKQIIESPLSADELKKMQDSAATLKKVLNDGLAELENKKLGGGSGGGSGGGSTVAQLEEKVKTLRAQNYELKSRVQRLREQVAQLA
In test [4], B6 had a maximum electric power (lactic acid fuel cell) of 121 µW/cm^2 and a shortcircuit current density (lactic acid fuel cell) of 1330 µA/cm^2.

B7: His-sceADH-Dzip1 (alcohol dehydrogenase derived from Saccharomyces cerevisiae, His tag, Dzip1 association site fused at the C-terminal side) (enzyme)
chain: MGSSHHHHHHSQDPPSQVIPEKQKAIVFYETDGKLEYKDVTVPEPKPNEILVHVKYSGVCHSDLHAWHGDWPFQLKFPLIGGHEGAGVVVKLGSNVKGWKVGDFAGIKWLNGTCMSCEYCEVGNESQCPYLDGTGFTHDGTFQEYATADAVQAAHIPPNVNLAEVAPILCAGITVYKALKRANVIPGQWVTISGACGGLGSLAIQYALAMGYRVIGIDGGNAKRKLFEQLGGEIFIDFTEEKDIVGAIIKATNGGSHGVINVSVSEAAIEASTRYCRPNGTVVLVGMPAHAYCNSDVFNQVVKSISIVGSCVGNRADTREALDFFARGLIKSPIHLAGLSDVPEIFAKMEKGEIVGRYVVETSKKLGGGSGGGSGGGSTVAQLEEKVKTLRAQNYELKSRVQRLREQVAQLA
As for B7, in test [5], the maximum electric power (alcohol fuel cell) amounted to 173 µW/cm^2 and the shortcircuit current density (alcohol fuel cell) was 1620 µA/cm^2.

Source of the values: US20070131547A1.
